Numbered stars: 1 amine (or outer) side, 2 acyl side, 3 side chain; on linkers, the order of the positions; unused ones are H or OH. Bridge positions count the residues as written; N and C are the ends. Side chains are listed from the residue outwards. Ends that are not written are not given here. * marks the point of attachment. C20 diacid = O=C(O)CCCCCCCCCCCCCCCCCCC(=O)*; γGlu = O=C(O)[C@H](CCC(=O)[*:2])N[*:1]
Legend:
rat calcitonin receptor [1] = target: T1, rat calcitonin receptor (rat, UniProt P32214 25-516); assay: ratio of binding IC50s: rat calcitonin receptor / rat amylin receptor (reference)
T1 construct: whole, on cells; Membranes prepared from transiently transfected BHK tk'ts 13 cells (Assay VIII); also called rCTR; rCT
T1 sequence (looked up): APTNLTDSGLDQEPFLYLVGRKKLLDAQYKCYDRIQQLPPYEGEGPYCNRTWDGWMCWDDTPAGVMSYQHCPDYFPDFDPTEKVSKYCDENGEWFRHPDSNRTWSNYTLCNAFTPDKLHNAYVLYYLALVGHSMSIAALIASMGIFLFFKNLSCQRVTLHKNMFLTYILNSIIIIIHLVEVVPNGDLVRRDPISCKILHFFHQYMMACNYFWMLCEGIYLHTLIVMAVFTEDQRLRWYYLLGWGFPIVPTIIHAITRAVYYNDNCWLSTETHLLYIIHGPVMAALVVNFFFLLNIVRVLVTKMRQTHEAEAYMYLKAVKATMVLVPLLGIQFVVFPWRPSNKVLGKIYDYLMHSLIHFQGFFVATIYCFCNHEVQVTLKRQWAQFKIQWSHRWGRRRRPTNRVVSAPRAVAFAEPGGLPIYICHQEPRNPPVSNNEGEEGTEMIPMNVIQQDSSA

[2] = target: T2, human calcitonin receptor (human, UniProt P30988 25-474); assay: ratio of binding IC50s: human calcitonin receptor / human amylin receptor (reference)
T2 construct: whole, on cells; Membranes prepared from a stably transfected BHK cell line (Assay VII); also called hCTR; hCT
T2 sequence (looked up): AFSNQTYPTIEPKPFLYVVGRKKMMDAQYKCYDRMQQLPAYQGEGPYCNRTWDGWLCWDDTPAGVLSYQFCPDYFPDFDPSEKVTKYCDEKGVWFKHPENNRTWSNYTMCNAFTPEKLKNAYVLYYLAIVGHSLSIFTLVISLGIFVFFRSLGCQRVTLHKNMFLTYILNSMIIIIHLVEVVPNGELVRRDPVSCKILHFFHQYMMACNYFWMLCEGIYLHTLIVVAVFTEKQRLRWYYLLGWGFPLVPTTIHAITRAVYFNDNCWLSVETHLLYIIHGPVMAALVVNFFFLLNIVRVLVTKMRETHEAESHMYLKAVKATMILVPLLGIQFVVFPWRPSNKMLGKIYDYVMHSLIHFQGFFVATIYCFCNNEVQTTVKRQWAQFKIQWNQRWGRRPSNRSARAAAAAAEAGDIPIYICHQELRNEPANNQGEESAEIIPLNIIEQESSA
Procedure, shortened: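 Competition binding by SPA with cell membranes (35 ng/μL) and SPA beads in 50 mM Hepes pH 7.4 with 1 mM CaCl2, 5 mM MgCl2, 0.1% OA and 0.02% Tween20. Incubated 120 min at 25 °C with shaking, then counted.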

rat calcitonin receptor [3] = target: T1, rat calcitonin receptor; assay: SPA competition vs 125I-calcitonin, membranes of BHK cells with rat calcitonin receptor (Assay VIII)
[4] = target: T3, rat amylin receptor (rat calcitonin receptor + rat RAMP 3) (rat, UniProt P32214 25-516; Q9JJ73 23-147); assay: SPA competition vs 125I-rat amylin, membranes of BHK cells with rat calcitonin receptor + rat RAMP3 (Assay VI)
T3 construct: whole, on cells; Membranes prepared from transiently transfected BHK tk'ts 13 cells (Assay VI); also called rAmylin-R; rAmylin
T3 sequence (looked up) 1: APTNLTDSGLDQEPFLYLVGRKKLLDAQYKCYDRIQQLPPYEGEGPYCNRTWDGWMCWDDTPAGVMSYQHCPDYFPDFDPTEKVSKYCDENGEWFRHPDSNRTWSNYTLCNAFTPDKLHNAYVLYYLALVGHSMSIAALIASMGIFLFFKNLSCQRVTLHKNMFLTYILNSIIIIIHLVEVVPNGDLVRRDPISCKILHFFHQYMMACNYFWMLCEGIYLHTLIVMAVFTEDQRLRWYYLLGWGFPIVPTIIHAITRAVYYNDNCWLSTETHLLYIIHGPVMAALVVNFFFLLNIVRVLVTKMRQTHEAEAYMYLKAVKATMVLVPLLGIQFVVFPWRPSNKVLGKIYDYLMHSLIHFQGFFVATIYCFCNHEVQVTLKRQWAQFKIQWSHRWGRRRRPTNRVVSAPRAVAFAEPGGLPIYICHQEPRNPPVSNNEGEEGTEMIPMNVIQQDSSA
T3 sequence (looked up) 2: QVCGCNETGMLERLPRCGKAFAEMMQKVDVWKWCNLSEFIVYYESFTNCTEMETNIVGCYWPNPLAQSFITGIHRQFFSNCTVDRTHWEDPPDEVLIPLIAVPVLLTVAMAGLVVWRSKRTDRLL

Row | Ratio rCT/rAmylin binding (rat calcitonin receptor [1]) | Ratio hCT/hAmylin binding [2] | IC50 (rat calcitonin receptor [3]) | IC50 [4] | Binder
1 | 126 | 159 | 352 nM | 2.8 nM | K([γGlu-γGlu-C20 diacid])CNTATCATQRLANFLRHSSPNFGAIPSSTNVGHNTY-NH2 (disulfide 2-7; N-terminus assumed; SMILES CC[C@H](C)[C@H](NC(=O)[C@H](C)NC(=O)CNC(=O)[C@H](Cc1ccccc1)NC(=O)[C@H](CC(N)=O)NC(=O)[C@@H]1CCCN1C(=O)[C@H](CO)NC(=O)[C@H](CO)NC(=O)[C@H](Cc1c[nH]cn1)NC(=O)[C@H](CCCNC(=N)N)NC(=O)[C@H](CC(C)C)NC(=O)[C@H](Cc1ccccc1)NC(=O)[C@H](CC(N)=O)NC(=O)[C@H](C)NC(=O)[C@H](CC(C)C)NC(=O)[C@H](CCCNC(=N)N)NC(=O)[C@H](CCC(N)=O)NC(=O)[C@@H](NC(=O)[C@H](C)NC(=O)[C@@H]1CSSC[C@H](NC(=O)[C@@H](N)CCCCNC(=O)CC[C@H](NC(=O)CC[C@H](NC(=O)CCCCCCCCCCCCCCCCCCC(=O)O)C(=O)O)C(=O)O)C(=O)N[C@@H](CC(N)=O)C(=O)N[C@@H]([C@@H](C)O)C(=O)N[C@@H](C)C(=O)N[C@@H]([C@@H](C)O)C(=O)N1)[C@@H](C)O)C(=O)N1CCC[C@H]1C(=O)N[C@@H](CO)C(=O)N[C@@H](CO)C(=O)N[C@H](C(=O)N[C@@H](CC(N)=O)C(=O)N[C@H](C(=O)NCC(=O)N[C@@H](Cc1c[nH]cn1)C(=O)N[C@@H](CC(N)=O)C(=O)N[C@H](C(=O)N[C@@H](Cc1ccc(O)cc1)C(N)=O)[C@@H](C)O)C(C)C)[C@@H](C)O, Analogue of human amylin; also called compound 86)
2 | 84.9 | 46.5 | 196 nM | 2.31 nM | K([γGlu-γGlu-C20 diacid])CNTATCATQRLAEFLRHSSPNFGAIPSSTNVGRNTY-NH2 (disulfide 2-7; N-terminus assumed; SMILES CC[C@H](C)[C@H](NC(=O)[C@H](C)NC(=O)CNC(=O)[C@H](Cc1ccccc1)NC(=O)[C@H](CC(N)=O)NC(=O)[C@@H]1CCCN1C(=O)[C@H](CO)NC(=O)[C@H](CO)NC(=O)[C@H](Cc1c[nH]cn1)NC(=O)[C@H](CCCNC(=N)N)NC(=O)[C@H](CC(C)C)NC(=O)[C@H](Cc1ccccc1)NC(=O)[C@H](CCC(=O)O)NC(=O)[C@H](C)NC(=O)[C@H](CC(C)C)NC(=O)[C@H](CCCNC(=N)N)NC(=O)[C@H](CCC(N)=O)NC(=O)[C@@H](NC(=O)[C@H](C)NC(=O)[C@@H]1CSSC[C@H](NC(=O)[C@@H](N)CCCCNC(=O)CC[C@H](NC(=O)CC[C@H](NC(=O)CCCCCCCCCCCCCCCCCCC(=O)O)C(=O)O)C(=O)O)C(=O)N[C@@H](CC(N)=O)C(=O)N[C@@H]([C@@H](C)O)C(=O)N[C@@H](C)C(=O)N[C@@H]([C@@H](C)O)C(=O)N1)[C@@H](C)O)C(=O)N1CCC[C@H]1C(=O)N[C@@H](CO)C(=O)N[C@@H](CO)C(=O)N[C@H](C(=O)N[C@@H](CC(N)=O)C(=O)N[C@H](C(=O)NCC(=O)N[C@@H](CCCNC(=N)N)C(=O)N[C@@H](CC(N)=O)C(=O)N[C@H](C(=O)N[C@@H](Cc1ccc(O)cc1)C(N)=O)[C@@H](C)O)C(C)C)[C@@H](C)O, Analogue of human amylin; also called compound 88)

Reference: patent US20140087995A1 (published 2014)
